The results in this text go back to PMC3570535.

pKd: −log10 of the molar value.

For this data set, the system named is His-DLA2 (RBP63, Cr-E2) (Chlamydomonas reinhardtii). The data set can be described thus: filter binding. To be noted: 5 mM Mg2+; 6.7 pM RNA; 20 mM HEPES/KOH pH 7.8, 5 mM MgCl2, 60 mM KCl, RT; 5 min (UV cross-linking, 254 nm, 1 J/cm2) or 15 min (filter binding); native fractions dialyzed to 30 mM ….

For psbA 5' UTR RNA, the pKd was 7.29.

What is called pKd is the Kd on a negative log10 scale, so that one unit is a factor of ten. A higher pKd goes with a low Kd.
